Results taken from article PMC4622665.

What was measured:
[1] = molecular target: cynomolgus formyl peptide receptor 1 (cynomolgus monkey)
[2] = molecular target: cynomolgus formyl peptide receptor 1 (cynomolgus monkey); test: FMAT competition binding on cells

IC50, inhibition of fMLFF-induced calcium release, cynomolgus FPR1 HEK cells [1] | IC50 [2] | Binder
12 nM | 20 nM | Fpro0165 IgG (antibody, V domains shown) VH: EVQLVESGGGLVKPGGSLRLSCAASGFTFSNAWMNWVRQAPGKGLEWVGRVKSKTDGGAADYAAPVKGRFTISRDDSKNTLYLQMNSLKTEDTAVYYCTTDQLGYDFWNGYYTDTLYYYFGMDVWGPGTTVTVSS VL: DIVMTQSPLSLPVTPGEPASISCRSSQPLLAMDGHNYLDWYLQKPGQSPQVLIYQSKWRASGVPDRFSGSGSGTDFTLKISRVEAEDVGVYYCMQALQTPLTFGGGTKVEIK
– | 33 nM | Fpro0025 IgG (antibody, V domains shown) VH: EVQLVESGGGLVKPGGSLRLSCAASGFTFSNAWMNWVRQAPGKGLEWVGRIKSKTDGGAADYAAPVKGRFTISRDDSKNTLYLQMNSLKTEDTAVYYCTTDQLGYDFWSGYYTDTLYYYFGMDVWGPGTTVTVSS VL: DIVMTQSPLSLPVTPGEPASISCRSSQPLLAMDGHNYLDWYLQKPGQSPQVLIYLGSNRASGVPDRFSGSGSGTDFTLKISRVEAEDVGVYYCMQALQTPLTFGGGTKVEIK
– | 13 nM | Fpro0084 IgG (antibody, V domains shown) VH: EVQLVESGGGLVKPGGSLRLSCAASGFTFSNAWMNWVRQAPGKGLEWVGRIKSKTDGGAADYAAPVKGRFTISRDDSKNTLYLQMNSLKTEDTAVYYCTTDQLGYDFWSGYYTDTLYYYFGMDVWGPGTTVTVSS VL: DIVMTQSPLSLPVTPGEPASISCRSSQQLQAYDGHNYLDWYLQKPGQSPQVLIYLGSNRASGVPDRFSGSGSGTDFTLKISRVEAEDVGVYYCMQALQTPLTFGGGTKVEIK
– | 13 nM | Fpro0067 IgG (antibody, V domains shown) VH: EVQLVESGGGLVKPGGSLRLSCAASGFTFSNAWMNWVRQAPGKGLEWVGRIKSKTDGGAADYAAPVKGRFTISRDDSKNTLYLQMNSLKTEDTAVYYCTTDQLGYDFWSGYYTDTLYYYFGMDVWGPGTTVTVSS VL: DIVMTQSPLSLPVTPGEPASISCRSSQPLLAMDGHNYLDWYLQKPGQSPQVLIYQSKWRASGVPDRFSGSGSGTDFTLKISRVEAEDVGVYYCMQALQTPLTFGGGTKVEIK
